Assays:
native gel or EMSA = target: the molecule itself; assay: native gel or EMSA
cryo-EM structure [1] = target: the molecule itself; assay: cryo-EM structure
cryo-EM structure [2] = target: the molecule itself; assay: cryo-EM structure; remark: listed apart in the source
[3] = target: the molecule itself; assay: single-particle cryo-EM, 2D class averages only

B1: PerM, AI-2 exporter from E. coli (natural protein, Escherichia coli K-12, UniProt P0AFI9 1-353, looked up)
chain: MLEMLMQWYRRRFSDPEAIALLVILVAGFGIIFFFSGLLAPLLVAIVLAYLLEWPTVRLQSIGCSRRWATSIVLVVFVGILLLMAFVVLPIAWQQGIYLIRDMPGMLNKLSDFAATLPRRYPALMDAGIIDAMAENMRSRMLTMGDSVVKISLASLVGLLTIAVYLVLVPLMVFFLLKDKEQMLNAVRRVLPRNRGLAGQVWKEMNQQITNYIRGKVLEMIVVGIATWLGFLLFGLNYSLLLAVLVGFSVLIPYIGAFVVTIPVVGVALFQFGAGTEFWSCFAVYLIIQALDGNLLVPVLFSEAVNLHPLVIILSVVIFGGLWGFWGVFFAIPLATLIKAVIHAWPDGQIAQE
stoichiometry N (native gel or EMSA): 2

B2: TqsA (transporter of quorum-sensing signal AI-2) from E. coli (natural protein, Escherichia coli K-12, UniProt P0AFS5 1-344, looked up)
chain: MAKPIITLNGLKIVIMLGMLVIILCGIRFAAEIIVPFILALFIAVILNPLVQHMVRWRVPRVLAVSILMTIIVMAMVLLLAYLGSALNELTRTLPQYRNSIMTPLQALEPLLQRVGIDVSVDQLAHYIDPNAAMTLLTNLLTQLSNAMSSIFLLLLTVLFMLLEVPQLPGKFQQMMARPVEGMAAIQRAIDSVSHYLVLKTAISIITGLVAWAMLAALDVRFAFVWGLLAFALNYIPNIGSVLAAIPPIAQVLVFNGFYEALLVLAGYLLINLVFGNILEPRIMGRGLGLSTLVVFLSLIFWGWLLGPVGMLLSVPLTIIVKIALEQTAGGQSIAVLLSDLNKE
stoichiometry N (cryo-EM structure [1]): 5

B3: Aq_740, AI-2 exporter from Aquifex aeolicus (natural protein, UniProt O66948 1-353, looked up)
chain: MNKLSLFVYLFFFLSFLFLFLYLLQPFFNPIVWAIVFGIVLYPLYGFIKRKLKSENLAAFLVIFIVLVAIVIPFTIFAVITAQQIIVFSIKVVNFVQTHSVNDLINSLKEIPFLKEKRESLEPLLNYLQSEEFRRALINALNSILTFVGDRLRSYVYTAGTSLFHVFVFLLTLFFILRDGEKVLKEIINSIPMKREDLEEILKTIYRTVLAVIYGTVGTAVAQSIMGFIGYSLAGVEFALIWALITFFAAFVPPFGAAFVWVPMDIYLFTTKGIKEGLILLFFGTFLISTMDNIVRPLVMKQGIKLPYVALFFSTIGGLIKFGFIGVFLGPIILSTMLASVKIYRRRVIHSGI
stoichiometry N (cryo-EM structure [2]): 5

B4: YhhT, AI-2 exporter from E. coli (natural protein, Escherichia coli K-12, UniProt P0AGM0 1-349, looked up)
chain: METPQPDKTGMHILLKLASLVVILAGIHAAADIIVQLLLALFFAIVLNPLVTWFIRRGVQRPVAITIVVVVMLIALTALVGVLAASFNEFISMLPKFNKELTRKLFKLQEMLPFLNLHMSPERMLQRMDSEKVVTFTTALMTGLSGAMASVLLLVMTVVFMLFEVRHVPYKMRFALNNPQIHIAGLHRALKGVSHYLALKTLLSLWTGVIVWLGLELMGVQFALMWAVLAFLLNYVPNIGAVISAVPPMIQVLLFNGVYECILVGALFLVVHMVIGNILEPRMMGHRLGMSTMVVFLSLLIWGWLLGPVGMLLSVPLTSVCKIWMETTKGGSKLAILLGPGRPKSRLPG
stoichiometry N [3]: 5

B5: YdiK, AI-2 exporter from E. coli (natural protein, Escherichia coli K-12, UniProt P0AFS7 1-370, looked up)
chain: MVNVRQPRDVAQILLSVLFLAIMIVACLWIVQPFILGFAWAGTVVIATWPVLLRLQKIMFGRRSLAVLVMTLLLVMVFIIPIALLVNSIVDGSGPLIKAISSGDMTLPDLAWLNTIPVIGAKLYAGWHNLLDMGGTAIMAKVRPYIGTTTTWFVGQAAHIGRFMVHCALMLLFSALLYWRGEQVAQGIRHFATRLAGVRGDAAVLLAAQAIRAVALGVVVTALVQAVLGGIGLAVSGVPYATLLTVLMILSCLVQLGPLPVLIPAIIWLYWTGDTTWGTVLLVWSGVVGTLDNVIRPMLIRMGADLPLILILSGVIGGLIAFGMIGLFIGPVLLAVSWRLFAAWVEEVPPPTDQPEEILEELGEIEKPNK
stoichiometry N (cryo-EM structure [1]): 5

From article doi:10.1101/2021.10.20.465058 (bioRxiv, 2021)
